Results as given in the supplement of paper PMC6757056.
± gives the standard deviation of the averaged measurements.

B1: library; a variant is named by its letters at N, in order (parent)
chain: GCUGUCACCGGUGCUUGGUACGUUAUAUUCAGCCGGUCUGAUGAGUCUNNNNNNAGACGAAACAGC

How the values were obtained:
(6R,S)-folinic acid [1] = variants of: B1; assay: normalized RNA/DNA level without ligand (relative to sTRSVctl = 100) (log10 (% of sTRSVctl)); HEK293T overexpressing SLC46A1; higher = less ribozyme self-cleavage, higher mRNA level; details: without (6R,S)-folinic acid; ligand present: no
Outline: (§1)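 HEK293T cells were transfected with library plasmids carrying ribozyme switches linked to an mCherry reporter, or an eGFP reporter in some ligand experiments, at 4 µg per well of a 6-well plate, with any ligand added 1 h beforehand. After 72 h, total RNA was extracted with EDTA, reverse-transcribed, amplified, barcoded and sequenced. RNA level was defined as RNA reads over DNA reads, normalized to a spiked-in non-cleaving sequence or to the top-ranked sequences. That value was multiplied by 100 and converted to log10, the top set was 25 sequences, and only sequences with ≥100 DNA reads were retained.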

(6R,S)-folinic acid [2] = variants of: B1; assay: normalized RNA/DNA level with ligand (relative to sTRSVctl = 100) (log10 (% of sTRSVctl)); HEK293T overexpressing SLC46A1; ligand concentration (+) RNA-Seq: 6 mM; higher = less ribozyme self-cleavage, higher mRNA level; details: with (6R,S)-folinic acid; ligand present: yes
Outline: as §1

CUCUAG
normalized RNA/DNA level without ligand (log10) ((6R,S)-folinic acid [1]): 2.001 ± 0.019
normalized RNA/DNA level with ligand (log10) ((6R,S)-folinic acid [2]): 2.02 ± 0.083

CUCUAC
normalized RNA/DNA level without ligand (log10) ((6R,S)-folinic acid [1]): 2.0423 ± 0.0006
normalized RNA/DNA level with ligand (log10) ((6R,S)-folinic acid [2]): 2.04 ± 0.023

GUCAGC
normalized RNA/DNA level without ligand (log10) ((6R,S)-folinic acid [1]): 1.979 ± 0.018
normalized RNA/DNA level with ligand (log10) ((6R,S)-folinic acid [2]): 2.02 ± 0.033

GUCAGU
normalized RNA/DNA level without ligand (log10) ((6R,S)-folinic acid [1]): 2.03 ± 0.026
normalized RNA/DNA level with ligand (log10) ((6R,S)-folinic acid [2]): 2.04 ± 0.038

GUCAGA
normalized RNA/DNA level without ligand (log10) ((6R,S)-folinic acid [1]): 2.0258 ± 0.00039
normalized RNA/DNA level with ligand (log10) ((6R,S)-folinic acid [2]): 2.027 ± 0.01

UUCCCU
normalized RNA/DNA level without ligand (log10) ((6R,S)-folinic acid [1]): 2.058 ± 0.011
normalized RNA/DNA level with ligand (log10) ((6R,S)-folinic acid [2]): 2.06 ± 0.048

UUCCCG
normalized RNA/DNA level without ligand (log10) ((6R,S)-folinic acid [1]): 1.972 ± 0.0089
normalized RNA/DNA level with ligand (log10) ((6R,S)-folinic acid [2]): 2 ± 0.038

UUCCCA
normalized RNA/DNA level without ligand (log10) ((6R,S)-folinic acid [1]): 2.034 ± 0.0022
normalized RNA/DNA level with ligand (log10) ((6R,S)-folinic acid [2]): 2.03 ± 0.04

UUCCCC
normalized RNA/DNA level without ligand (log10) ((6R,S)-folinic acid [1]): 2.058 ± 0.019
normalized RNA/DNA level with ligand (log10) ((6R,S)-folinic acid [2]): 1.99 ± 0.022

CUCAGU
normalized RNA/DNA level without ligand (log10) ((6R,S)-folinic acid [1]): 2.024 ± 0.015
normalized RNA/DNA level with ligand (log10) ((6R,S)-folinic acid [2]): 2.017 ± 0.015

CUCAGG
normalized RNA/DNA level without ligand (log10) ((6R,S)-folinic acid [1]): 1.99 ± 0.021
normalized RNA/DNA level with ligand (log10) ((6R,S)-folinic acid [2]): 2.03 ± 0.03

CUCAGA
normalized RNA/DNA level without ligand (log10) ((6R,S)-folinic acid [1]): 2.048 ± 0.019
normalized RNA/DNA level with ligand (log10) ((6R,S)-folinic acid [2]): 2.03 ± 0.07

CUCAGC
normalized RNA/DNA level without ligand (log10) ((6R,S)-folinic acid [1]): 2.06 ± 0.0071
normalized RNA/DNA level with ligand (log10) ((6R,S)-folinic acid [2]): 2.032 ± 0.0023

GUCUCA
normalized RNA/DNA level without ligand (log10) ((6R,S)-folinic acid [1]): 2.0197 ± 0.0003
normalized RNA/DNA level with ligand (log10) ((6R,S)-folinic acid [2]): 2.01 ± 0.027

GUCUCC
normalized RNA/DNA level without ligand (log10) ((6R,S)-folinic acid [1]): 2.032 ± 0.015
normalized RNA/DNA level with ligand (log10) ((6R,S)-folinic acid [2]): 2.024 ± 0.0098

GUCUCU
normalized RNA/DNA level without ligand (log10) ((6R,S)-folinic acid [1]): 2.0436 ± 0.00093
normalized RNA/DNA level with ligand (log10) ((6R,S)-folinic acid [2]): 2.03 ± 0.044

UUCCUC
normalized RNA/DNA level without ligand (log10) ((6R,S)-folinic acid [1]): 2.096 ± 0.011
normalized RNA/DNA level with ligand (log10) ((6R,S)-folinic acid [2]): 2.062 ± 0.02

UUCCUU
normalized RNA/DNA level without ligand (log10) ((6R,S)-folinic acid [1]): 2.02 ± 0.017
normalized RNA/DNA level with ligand (log10) ((6R,S)-folinic acid [2]): 2.034 ± 0.018

UUCCUA
normalized RNA/DNA level without ligand (log10) ((6R,S)-folinic acid [1]): 2.022 ± 0.0051
normalized RNA/DNA level with ligand (log10) ((6R,S)-folinic acid [2]): 2.033 ± 0.011

AUCCAU
normalized RNA/DNA level without ligand (log10) ((6R,S)-folinic acid [1]): 1.991 ± 0.0092
normalized RNA/DNA level with ligand (log10) ((6R,S)-folinic acid [2]): 2.01 ± 0.042

AUCCAC
normalized RNA/DNA level without ligand (log10) ((6R,S)-folinic acid [1]): 2.037 ± 0.013
normalized RNA/DNA level with ligand (log10) ((6R,S)-folinic acid [2]): 2.02 ± 0.037

AUCCAG
normalized RNA/DNA level without ligand (log10) ((6R,S)-folinic acid [1]): 1.981 ± 0.0027
normalized RNA/DNA level with ligand (log10) ((6R,S)-folinic acid [2]): 2 ± 0.031

AUCCAA
normalized RNA/DNA level without ligand (log10) ((6R,S)-folinic acid [1]): 1.958 ± 0.0049
normalized RNA/DNA level with ligand (log10) ((6R,S)-folinic acid [2]): 1.98 ± 0.02

AUCUCA
normalized RNA/DNA level without ligand (log10) ((6R,S)-folinic acid [1]): 2.02 ± 0.022
normalized RNA/DNA level with ligand (log10) ((6R,S)-folinic acid [2]): 2.018 ± 0.0082

AUCUCC
normalized RNA/DNA level without ligand (log10) ((6R,S)-folinic acid [1]): 2.04 ± 0.0049
normalized RNA/DNA level with ligand (log10) ((6R,S)-folinic acid [2]): 2.03 ± 0.064

AUCUCU
normalized RNA/DNA level without ligand (log10) ((6R,S)-folinic acid [1]): 2.02 ± 0.023
normalized RNA/DNA level with ligand (log10) ((6R,S)-folinic acid [2]): 2.021 ± 0.0047

CUAUUC
normalized RNA/DNA level without ligand (log10) ((6R,S)-folinic acid [1]): 2.06 ± 0.024
normalized RNA/DNA level with ligand (log10) ((6R,S)-folinic acid [2]): 2.008 ± 0.0052

CUAUUA
normalized RNA/DNA level without ligand (log10) ((6R,S)-folinic acid [1]): 2.017 ± 0.013
normalized RNA/DNA level with ligand (log10) ((6R,S)-folinic acid [2]): 2.009 ± 0.0054

UUAUAU
normalized RNA/DNA level without ligand (log10) ((6R,S)-folinic acid [1]): 1.9416 ± 0.0019
normalized RNA/DNA level with ligand (log10) ((6R,S)-folinic acid [2]): 2 ± 0.057

UUAUAA
normalized RNA/DNA level without ligand (log10) ((6R,S)-folinic acid [1]): 1.925 ± 0.0034
normalized RNA/DNA level with ligand (log10) ((6R,S)-folinic acid [2]): 1.981 ± 0.017

UUAUGC
normalized RNA/DNA level without ligand (log10) ((6R,S)-folinic acid [1]): 1.989 ± 0.0091
normalized RNA/DNA level with ligand (log10) ((6R,S)-folinic acid [2]): 2.02 ± 0.039

UUAUGG
normalized RNA/DNA level without ligand (log10) ((6R,S)-folinic acid [1]): 1.798 ± 0.008
normalized RNA/DNA level with ligand (log10) ((6R,S)-folinic acid [2]): 1.97 ± 0.0093

UUCAUC
normalized RNA/DNA level without ligand (log10) ((6R,S)-folinic acid [1]): 2.01 ± 0.036
normalized RNA/DNA level with ligand (log10) ((6R,S)-folinic acid [2]): 1.93 ± 0.043

UUCAUA
normalized RNA/DNA level without ligand (log10) ((6R,S)-folinic acid [1]): 1.993 ± 0.0029
normalized RNA/DNA level with ligand (log10) ((6R,S)-folinic acid [2]): 1.994 ± 0.002

UUCAUU
normalized RNA/DNA level without ligand (log10) ((6R,S)-folinic acid [1]): 2.025 ± 0.0078
normalized RNA/DNA level with ligand (log10) ((6R,S)-folinic acid [2]): 2.01 ± 0.053

GUCAUU
normalized RNA/DNA level without ligand (log10) ((6R,S)-folinic acid [1]): 2.068 ± 0.0023
normalized RNA/DNA level with ligand (log10) ((6R,S)-folinic acid [2]): 2.007 ± 0.0048

GUCAUA
normalized RNA/DNA level without ligand (log10) ((6R,S)-folinic acid [1]): 1.994 ± 0.0035
normalized RNA/DNA level with ligand (log10) ((6R,S)-folinic acid [2]): 1.99 ± 0.055

GUCAUC
normalized RNA/DNA level without ligand (log10) ((6R,S)-folinic acid [1]): 2.0573 ± 0.0006
normalized RNA/DNA level with ligand (log10) ((6R,S)-folinic acid [2]): 2.01 ± 0.0035

AUCAAC
normalized RNA/DNA level without ligand (log10) ((6R,S)-folinic acid [1]): 2.0326 ± 0.00048
normalized RNA/DNA level with ligand (log10) ((6R,S)-folinic acid [2]): 2.01 ± 0.033

AUCAAG
normalized RNA/DNA level without ligand (log10) ((6R,S)-folinic acid [1]): 1.93 ± 0.021
normalized RNA/DNA level with ligand (log10) ((6R,S)-folinic acid [2]): 2 ± 0.026

AUCAAU
normalized RNA/DNA level without ligand (log10) ((6R,S)-folinic acid [1]): 1.989 ± 0.0025
normalized RNA/DNA level with ligand (log10) ((6R,S)-folinic acid [2]): 2 ± 0.053

AUCAAA
normalized RNA/DNA level without ligand (log10) ((6R,S)-folinic acid [1]): 2.002 ± 0.0041
normalized RNA/DNA level with ligand (log10) ((6R,S)-folinic acid [2]): 2 ± 0.04

AUCAUU
normalized RNA/DNA level without ligand (log10) ((6R,S)-folinic acid [1]): 2.05 ± 0.024
normalized RNA/DNA level with ligand (log10) ((6R,S)-folinic acid [2]): 2.03 ± 0.023

AUCAUC
normalized RNA/DNA level without ligand (log10) ((6R,S)-folinic acid [1]): 2.01 ± 0.022
normalized RNA/DNA level with ligand (log10) ((6R,S)-folinic acid [2]): 1.98 ± 0.031

AUCAUA
normalized RNA/DNA level without ligand (log10) ((6R,S)-folinic acid [1]): 1.98 ± 0.02
normalized RNA/DNA level with ligand (log10) ((6R,S)-folinic acid [2]): 1.99 ± 0.046

AUCAUG
normalized RNA/DNA level without ligand (log10) ((6R,S)-folinic acid [1]): 1.989 ± 0.009
normalized RNA/DNA level with ligand (log10) ((6R,S)-folinic acid [2]): 2.005 ± 0.019

GUCCAA
normalized RNA/DNA level without ligand (log10) ((6R,S)-folinic acid [1]): 1.992 ± 0.011
normalized RNA/DNA level with ligand (log10) ((6R,S)-folinic acid [2]): 2.01 ± 0.035

GUCCAC
normalized RNA/DNA level without ligand (log10) ((6R,S)-folinic acid [1]): 2.006 ± 0.011
normalized RNA/DNA level with ligand (log10) ((6R,S)-folinic acid [2]): 2.011 ± 0.017

GUCCAU
normalized RNA/DNA level without ligand (log10) ((6R,S)-folinic acid [1]): 1.9991 ± 3.5e-06
normalized RNA/DNA level with ligand (log10) ((6R,S)-folinic acid [2]): 2.008 ± 0.016

UUCGUU
normalized RNA/DNA level without ligand (log10) ((6R,S)-folinic acid [1]): 2.009 ± 0.013
normalized RNA/DNA level with ligand (log10) ((6R,S)-folinic acid [2]): 1.98 ± 0.042

UUCGUG
normalized RNA/DNA level without ligand (log10) ((6R,S)-folinic acid [1]): 1.81 ± 0.027
normalized RNA/DNA level with ligand (log10) ((6R,S)-folinic acid [2]): 1.99 ± 0.067

UUCGUC
normalized RNA/DNA level without ligand (log10) ((6R,S)-folinic acid [1]): 2.1 ± 0.024
normalized RNA/DNA level with ligand (log10) ((6R,S)-folinic acid [2]): 2.06 ± 0.068

UUCGUA
normalized RNA/DNA level without ligand (log10) ((6R,S)-folinic acid [1]): 1.96 ± 0.025
normalized RNA/DNA level with ligand (log10) ((6R,S)-folinic acid [2]): 1.97 ± 0.02

GUCCUG
normalized RNA/DNA level without ligand (log10) ((6R,S)-folinic acid [1]): 2.02 ± 0.034
normalized RNA/DNA level with ligand (log10) ((6R,S)-folinic acid [2]): 2.01 ± 0.021

GUCCUU
normalized RNA/DNA level without ligand (log10) ((6R,S)-folinic acid [1]): 2.005 ± 0.01
normalized RNA/DNA level with ligand (log10) ((6R,S)-folinic acid [2]): 2.008 ± 0.019

GUCCUC
normalized RNA/DNA level without ligand (log10) ((6R,S)-folinic acid [1]): 2.024 ± 0.02
normalized RNA/DNA level with ligand (log10) ((6R,S)-folinic acid [2]): 2.05 ± 0.048

GUCCUA
normalized RNA/DNA level without ligand (log10) ((6R,S)-folinic acid [1]): 1.994 ± 0.015
normalized RNA/DNA level with ligand (log10) ((6R,S)-folinic acid [2]): 2.02 ± 0.043

GUAGUU
normalized RNA/DNA level without ligand (log10) ((6R,S)-folinic acid [1]): 2.003 ± 0.0023
normalized RNA/DNA level with ligand (log10) ((6R,S)-folinic acid [2]): 2.02 ± 0.021
